Experimental data taken from IntAct's records for PubMed 15962010.

Molecular target: sumf1_human SUMF1 (UniProt Q8NBK3)
Sequence (Q8NBK3 whole entry): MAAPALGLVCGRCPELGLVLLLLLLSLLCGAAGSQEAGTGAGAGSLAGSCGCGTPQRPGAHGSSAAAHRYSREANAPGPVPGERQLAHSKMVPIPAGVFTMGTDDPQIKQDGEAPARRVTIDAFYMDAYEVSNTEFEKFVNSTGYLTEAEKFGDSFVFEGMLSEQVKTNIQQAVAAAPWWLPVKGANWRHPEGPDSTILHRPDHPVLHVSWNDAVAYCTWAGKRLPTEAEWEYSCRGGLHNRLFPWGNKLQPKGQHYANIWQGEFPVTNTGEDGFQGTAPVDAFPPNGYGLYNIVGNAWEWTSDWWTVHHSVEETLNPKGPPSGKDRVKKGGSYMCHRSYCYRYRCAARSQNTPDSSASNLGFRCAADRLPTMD

effect of a mutation on the interaction: disrupting interaction strength
Substance: Inactive C-alpha-formylglycine-generating enzyme 2 (Homo sapiens), Q8NBJ7 C156A;C290A
